Assay results reported in patent publication US20200040086A1 (BERLIN CHEMIE, published 2020).

Columns and labels:
Assay in all cases: peptide microarray of 8mer LY75 peptides, LY75_A1 at 1 µg/mL, anti-human IgG Alexa 647
LSCYKVFH = target: T1, LSCYKVFH
T1 construct: 8mer of LY75 on the peptide microarray, chart Region 2
T1 peptide: LSCYKVFH
Method: (§1) The peptide microarray analysis was performed by LC Sciences, Houston Tex., in brief the method comprised the following steps:—Contiguous 8mer peptides of LY75 protein having […] spanning residues 216 to 1666 of the full length LY75 protein were synthesized and immobilized on a microarray chip. The chip comprised three panels such that the experiment was performed in triplicate. The microarray was addressed with LY75_A1 to identify the peptides to which the antibody bound. The binding assay was performed under the following conditions:—
(§2) The microarray comprising the contiguous peptides in triplicate was washed with 1 mL of binding buffer at 4° C. for 20 min. It was then incubated with 1 μg/mL LY75_A1 in binding buffer (pH 7.0) at 4° C. for 2 hrs. The array was again washed with 0.5 mL of washing buffer at 4° C. for 30 min then incubated with 25 ng/mL anti-human IgG Alexa 647 conjugate in binding buffer (pH 7.0) at 4° C. for 1 hr. The array was again washed with 0.5 mL of washing buffer at 4° C. for 30 min.

EVKDCRSF = target: T2, EVKDCRSF
T2 construct: 8mer of LY75 on the peptide microarray, chart Region 1
T2 peptide: EVKDCRSF
Method: as §1, §2

RRGWHFYD = target: T3, RRGWHFYD
T3 construct: 8mer of LY75 on the peptide microarray, chart Region 3
T3 peptide: RRGWHFYD
Method: as §1, §2

YDDREFIY = target: T4, YDDREFIY
T4 construct: 8mer of LY75 on the peptide microarray, chart Region 3
T4 peptide: YDDREFIY
Method: as §1, §2

DREFIYLR = target: T5, DREFIYLR
T5 construct: 8mer of LY75 on the peptide microarray, chart Region 3
T5 peptide: DREFIYLR
Method: as §1, §2

EFIYLRPF = target: T6, EFIYLRPF
T6 construct: 8mer of LY75 on the peptide microarray, chart Region 3
T6 peptide: EFIYLRPF
Method: as §1, §2

PIDDHFTY = target: T7, PIDDHFTY
T7 construct: 8mer of LY75 on the peptide microarray, chart Region 4
T7 peptide: PIDDHFTY
Method: as §1, §2

HFTYSRYP = target: T8, HFTYSRYP
T8 construct: 8mer of LY75 on the peptide microarray, chart Region 4
T8 peptide: HFTYSRYP
Method: as §1, §2

YSRYPWHR = target: T9, YSRYPWHR
T9 construct: 8mer of LY75 on the peptide microarray, chart Region 4
T9 peptide: YSRYPWHR
Method: as §1, §2

SRYPWHRF = target: T10, SRYPWHRF
T10 construct: 8mer of LY75 on the peptide microarray, chart Region 4
T10 peptide: SRYPWHRF
Method: as §1, §2

PWHRFPVT = target: T11, PWHRFPVT
T11 construct: 8mer of LY75 on the peptide microarray, chart Region 4
T11 peptide: PWHRFPVT
Method: as §1, §2

WHRFPVTF = target: T12, WHRFPVTF
T12 construct: 8mer of LY75 on the peptide microarray, chart Region 4
T12 peptide: WHRFPVTF
Method: as §1, §2

HRFPVTFG = target: T13, HRFPVTFG
T13 construct: 8mer of LY75 on the peptide microarray, chart Region 4
T13 peptide: HRFPVTFG
Method: as §1, §2

RELTYSNF = target: T14, RELTYSNF
T14 construct: 8mer of LY75 on the peptide microarray, chart Region 5
T14 peptide: RELTYSNF
Method: as §1, §2

TSCSERHF = target: T15, TSCSERHF
T15 construct: 8mer of LY75 on the peptide microarray, chart Region 6
T15 peptide: TSCSERHF
Method: as §1, §2

VKYLNNLY = target: T16, VKYLNNLY
T16 construct: 8mer of LY75 on the peptide microarray, chart Region 7
T16 peptide: VKYLNNLY
Method: as §1, §2

LNNLYKII = target: T17, LNNLYKII
T17 construct: 8mer of LY75 on the peptide microarray, chart Region 7
T17 peptide: LNNLYKII
Method: as §1, §2

AVYFHQHS = target: T18, AVYFHQHS
T18 construct: 8mer of LY75 on the peptide microarray, chart Region 8
T18 peptide: AVYFHQHS
Method: as §1, §2

VYFHQHSI = target: T19, VYFHQHSI
T19 construct: 8mer of LY75 on the peptide microarray, chart Region 8
T19 peptide: VYFHQHSI
Method: as §1, §2

KLSRLTYS = target: T20, KLSRLTYS
T20 construct: 8mer of LY75 on the peptide microarray, chart Region 9
T20 peptide: KLSRLTYS
Method: as §1, §2

LSRLTYSS = target: T21, LSRLTYSS
T21 construct: 8mer of LY75 on the peptide microarray, chart Region 9
T21 peptide: LSRLTYSS
Method: as §1, §2

RWIQYKGH = target: T22, RWIQYKGH
T22 construct: 8mer of LY75 on the peptide microarray, chart Region 10
T22 peptide: RWIQYKGH
Method: as §1, §2

QYKGHCYK = target: T23, QYKGHCYK
T23 construct: 8mer of LY75 on the peptide microarray, chart Region 10
T23 peptide: QYKGHCYK
Method: as §1, §2

Measured: binding result

B1: LY75_A1 (antibody, V domains shown)
VH: EVQLVESGGGLVKPGGSLRLSCAASGFTYSNAWMSWVRQAPGKGLEWVGRIKSKTDGGTTDYAAPVQGRFTISRDDSKNTLYLQMNSLKTEDTAVYYCTIFGVVSFDYWGQGTLVTVSS
VL: DVQMTQSPSSLSASVGDRVTITCRASQSISDYLSWYQQRPGKAPNLLIYAASNLKTGVPSRFSGSGSGTDFTLTISTLQPEDFATYYCQQSYRSPWTFGQGTKVEIKR
notes: detected with anti-human IgG in the microarray; also called antibody LY75_A1; LY75_A1 monoclonal antibody
binds: all assays above
